Measured values reported in US20260109774A1 (JUNO THERAPEUTICS, published 2026).

T1: human B-cell maturation antigen (BCMA) on cells (human, UniProt Q02223 1-184)
T1 construct: Recombinant on HEK293 or K562 cells, or endogenous on cell lines (H929, RPMI 8226, OPM2, MM1S, Daudi); also called hBCMA; huBCMA
T1 chain: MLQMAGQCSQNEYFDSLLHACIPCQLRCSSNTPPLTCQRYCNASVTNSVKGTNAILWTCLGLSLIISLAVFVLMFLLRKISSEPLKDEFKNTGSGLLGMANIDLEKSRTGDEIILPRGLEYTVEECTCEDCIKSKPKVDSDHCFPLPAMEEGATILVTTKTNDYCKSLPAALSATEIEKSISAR


Biological target: T1, human B-cell maturation antigen (BCMA) …
Assay: flow cytometry on BCMA-expressing HEK293 cells vs control cells, crude lysate or bacterial supernatant; clone listed in Table E2
Experimental: Specific binding of resulting scFv clones to BCMA-expressing HEK293 cells, as compared to control cells not expressing BCMA, was assessed by flow cytometry either with in vitro translated crude cell lysate or with bacterially-produced supernatant.

Row | Binder | binding result
1 | BCMA-8 scFv (scFv) scFv: QVQLVQSGGGLVQPGRSLRLSCTASGFTFGDYAMSWFRQAPGKGLEWVGFIRSKAYGGTTEYAASVKGRFTISRDDSKSIAYLQMNSLKTEDTAVYYCAAWSAPTDYWGQGTLVTVSSGGGGSGGGGSGGGGSDIVMTQSPDSLAVSLGERATINCKSSQSVLYSSNNKNYLAWYQQKPGQPPKLLIYWASTRESGVPDRFSGSGSGTDFTLTISSLQAEDVAVYYCQQYYSTPYTFGQGTKLEIK | binds
2 | BCMA-31 scFv (scFv) scFv: EVQLVQSGGGLVQPGRSLRLSCTASGFTFGDYAMSWFRQAPGKGLEWVGFIRSKAYGGTTEYAASVKGRFTISRDDSKSIAYLQMNSLKTEDTAVYYCAAWSAPTDYWGQGTLVTVSSGGGGSGGGGSGGGGSDVVMTQSPDSLAVSLGERATISCKSSQSVLNSSNNKNYVAWYKQKPGQPPKLVISWASTRESGVPDRFSGSGSGTDFTLTISSLQAEDVAVYYCQQYYSTPYTFGQGTKLDIK | binds
3 | BCMA-46 scFv (scFv) scFv: QVQLVQSGGGLVQPGRSLRLSCTASGFTFGDYAMSWFRQAPGKGLEWVGFIRSKAYGGTTEYAASVKGRFTISRDDSKSIAYLQMNSLKTEDTAVYYCAAWSAPTDYWGQGTLVTVSSGGGGSGGGGSGGGGSDIVMTQSPDSLVVSLGERATINCKSSQSVLHSSNNKNYLAWYQQKPGQPPKLLIYWASTRESGVPDRFSGSGSGTDFTLTISSLQAEDVAVYYCQQYYTTPLTFGGGTKVEIK | binds
4 | BCMA-6 scFv (scFv) scFv: QVQLVQSGGGLVQPGRSLRLSCTASGFTFGDYAMSWFRQAPGKGLEWVGFIRSKAYGGTTEYAASVKGRFTISRDDSKSIAYLQMNSLKTEDTAVYYCAAWSAPTDYWGQGTLVTVSSGGGGSGGGGSGGGGSDIVMTQSPSSLSVSVGERVTITCRASQSISNSLAWYKQRPGEAPKLLIHAASNVEDGVPSRFSGRGSGTVFTLAISNVQPEDFATYYCQQSHMYPPTFGGGTKVEIK | binds
5 | BCMA-7 scFv (scFv) scFv: QVQLVQSGGGLVQPGRSLRLSCTASGFTFGDYAMSWFRQAPGKGLEWVGFIRSKAYGGTTEYAASVKGRFTISRDDSKSIAYLQMNSLKTEDTAVYYCAAWSAPTDYWGQGTLVTVSSGGGGSGGGGSGGGGSVIQLTQSPSSLSASVGDRVTITCRASQDIGDYLAWFQQRPGKAPKSLIYVASTLQSGVPSRFSGSGSGTHFTLTINSLQPEDFATYYCQQYHSHPWTFGPGTKVDIK | binds
6 | BCMA-11 scFv (scFv) scFv: QVQLVQSGGGLVQPGRSLRLSCAASGFTFDDYAMHWVRRAPGKGLEWVSGISWNSGSIGYADSVKGRFTISRDNAKNSLYLQMNSLRAEDTAVYYCARDLGPDYDPDAFDIWGQGTMVTVSSGGGGSGGGGSGGGGSQLVLTQPPSASGTPGQRVTISCSGSSSNIGSNAVNWYQQLPGTAPEVLIYNSHQRPSGVPDRFSGSKSGTSASLAINGLQSEDEADYYCAAWDDSLRGYVFGTGTKLTVL | binds
7 | BCMA-12 scFv (scFv) scFv: EVQLVESGGGLVKPGGSLRLSCAASGFTFSDYYMSWIRQAPGKGLEWVSYISSSGSTIYYADSVKGRFTISRDNAKNSLYLQMNSLRAEDTAVYYCAKVDGPPSFDIWGQGTMVTVSSGGGGSGGGGSGGGGSQSALTQPPSVSAAPGQKVTISCSGSRSNIGNNYVSWYQQLPGTAPKLLIYDNAKRPSGIPDRFSGSKSGTSATLDIAGLQTGDEADYYCQVWDSSSDHWVFGGGTKLTVL | binds
8 | BCMA-15 scFv (scFv) scFv: QVQLLESGGGLVKPGGSLRLSCAASGFTFSSYGMHWVRQAPGKGLEWVAVISYDGSNKYYADSVKGRFTISRDNSKNTLYLQMNSLRAEDTAVYYCAKDQYSSSAQRADFDYWGQGTLVTVSSGGGGSGGGGSGGGGSQSVLTQPPSASGTPGQRVTISCSGSGSNIGSNDVSWYQQIPGTAPKLLIYWNDQRPSGVPDRFSGSKSGTSASLVISGLRSEDEADYYCAAWDDSLSGWVFGGGTKLTVL | binds
9 | BCMA-16 scFv (scFv) scFv: EVQLVQSGPEVKKPGTSVKVSCKASGFTFTSSAMQWVRQARGQRLEWIGWIVVGSGNTNYAQKFQERVTITRDMSTSTAYMELSSLRSEDTAVYYCAAAPYYDILTGYYLWGQGTLVTVSSGGGGSGGGGSGGGGSQSALTQPPSASGTPGQRVTISCSGSGSNIGSNDVSWYQQIPGTAPKLLIYWNDQRPSGVPDRFSGSKSGTSASLAISGLQSEDEADYYCASWDDSLSGWVFGGGTKLTVL | binds
10 | BCMA-17 scFv (scFv) scFv: QVQLVQSGGGLVKPGGSLRLSCAASGFTFSDYYMSWIRLAPGKGLEWVSYISSSGSTIYYADSVKGRFTISRDNAKNSLYLQMNSLRAEDTAVYYCAREADSSADYWGQGTLVNVSSGGGGSGGGGSGGGGSQPVLTQPPSVSVAPGKTAMITCGGNNIGFKGVQWYQQKTGQAPVLVVYDDSDRPSGIPERFSGSNSGNTATLTISRVEAGDEADYYCQVWDSASDHWVFGGGTKLTVL | binds

Now from value to binder:

Row | binding result | Binder
11 | binds | BCMA-3 scFv (scFv) scFv: QVQLVQSGGGLVQPGRSLRLSCTASGFTFGDYAMSWFRQAPGKGLEWVGFIRSKAYGGTTEYAASVKGRFTISRDDSKSIAYLQMNSLKTEDTAVYYCAAWSAPTDYWGQGTLVTVSSGGGGSGGGGSGGGGSDIVMTQSPDSLVVSLGERATINCKSSQSVLHSSNNKNYLAWYQQKPGQPPKLLIYWASTRESGVPDRFSGSGSGTDFTLTISSLQAEDVAVYYCQQYYTTPLTFGGGTKVEIK
12 | binds | BCMA-44 scFv (scFv) scFv: EVQLVQSGGGLVQPGRSLRLSCTASGFTFGDYAMSWFRQAPGKGLEWVGFIRSKAYGGTTEYAASVKGRFTISRDDSKSIAYLQMNSLKTEDTAVYYCAAWSAPTDYWGQGTLVTVSSGGGGSGGGGSGGGGSDVVMTQSPDSLAVSLGERATINCKSSQNLLYSSNNKNYLAWYQQKPGQPPKLLIYWASTRESGVPDRFSGSGSGTDFTLTISSLQAEDVAVYYCQQYYSSPYTFGQGTKLEIK
13 | binds | BCMA-2 scFv (scFv) scFv: EVQLVESGGGLVKPGGSLRLSCAASGFTFSDYYMSWIRQAPGKGLEWVSYISSSGSTIYYADSVKGRFTISRDNAKNSLYLQMNSLRAEDTAVYYCAKVDGPPSSDIWGQGTMVTVSSGGGGSGGGGSGGGGSEIVMTQSPATLSVSPGETATLSCRASQSIKTNLAWYQQKPGQAPRLLIYAASTRATGIPDRFSGSGSGTDFTLTITRLEPEDFAVYYCQQYGSSPTFGRGTKLEIK
14 | binds | BCMA-4 scFv (scFv) scFv: QVQLVQSGGGLVQPGRSLRLSCTASGFTFGDYAMSWFRQAPGKGLEWVGFIRSKAYGGTTEYAASVKGRFTISRDDSKSIAYLQMNSLKTEDTAVYYCAAWSAPTDYWGQGTLVTVSSGGGGSGGGGSGGGGSAIRMTQSPSSLSASLGDRVTITCRASQDIRNSLAWYQQRPGKAPKLLLSAASRLESGVPSRFSGTTSGAEYALSISSLQPEDVASYFCQQYYSLPLSFGGGTKVEIK
15 | binds | BCMA-33 scFv (scFv) scFv: QVQLVQSGGGLVKPGGSLRLSCAASGFTFSDYYMSWIRQAPGKGLEWVSYISGSGSTIYYADSVKGRFTISRDNAKNSLYLQMNSLRAEDTAVYYCAREADSSADYWGQGTLVNVSSGGGGSGGGGSGGGGSQPVLTQPPSVSVAPGKTAMITCGGNNIGFKGVQWYQQKTGQAPVLVVYDDSDRPSGIPERFSGSNSGNTATLTISRVEAGDEADYYCQVWDSASDHWVFGGGTKLTVL
